The results in this text go back to paper PMC5797146 (Scientific Reports, 2018).

Positions count from the first letter of the chain named. Names may count otherwise.

The test deals with T1, Clostridium difficile toxin A (Clostridioides difficile …, UniProt P16154).
T1 construct: also called TcdA
The experiment in a line: SPR. As to conditions: both partners purified.

B1: A26.8 VHH T56R, Q101K (VHH)
VHH: QVKLEESGGGLVQAGGSLRLSCAASERTFSRYPVAWFRQAPGAEREFVAVISSTGRSTYYADSVKGRFTISRDNAKVTVYLQMNNLKREDTAVYFCAVNSKRTRLQDPNEYDYWGQGTQVTVSS
notes: source: E. coli TG1, periplasmic extract, purified (IMAC, SEC)
Regarding B1, the Kd (in general, the equilibrium constant for the complex coming apart) stood at 4.1 nM; the dissociation rate constant (koff) – broadly, the rate constant with which the complex falls apart – was determined as 0.05 s⁻¹; the kon (in general, a measure of how fast the partners come together) was 1.24e+07 M⁻¹ s⁻¹.

B2: A26.8 VHH T56R, T103M (VHH)
VHH: B1 VHH with K101Q, T103M
notes: as for B1
B2: the dissociation constant (Kd) is 4.8 nM, the koff was 0.03 s⁻¹ and the kon came out at 6.4e+06 M⁻¹ s⁻¹.

B3: A26.8 VHH Q101K, T103R (VHH)
VHH: B1 VHH with R56T, T103R
notes: as for B1
Take B3: the Kd is 4.2 nM, the koff was found to be 0.023 s⁻¹ and the kon was 5.5e+06 M⁻¹ s⁻¹.

B4: A26.8 VHH Q101K, T103M (VHH)
VHH: B1 VHH with R56T, T103M
notes: as for B1
In turn, B4 yielded a Kd of 8 nM, a koff of 0.027 s⁻¹ and a kon of 3.3e+06 M⁻¹ s⁻¹.

B5: A26.8 VHH Q101K, T103K (VHH)
VHH: B1 VHH with R56T, T103K
notes: as for B1
In turn, B5 showed a Kd of 8.2 nM, a koff of 0.04 s⁻¹ and a kon of 5e+06 M⁻¹ s⁻¹.
